Test in all cases: cytokine release
In test [1] the target is T1, HIV-1 Nef VY8 variant with Leu at P4 peptide on HLA-B*35:01 (human).
T1 peptide: VPLLPMTY

In test [2] the target is T2, HIV-1 Nef VY8 variant with Val at P3 peptide on HLA-B*35:01 (human).
T2 peptide: VPVRPMTY

Test [3] concerns the target T3, HIV-1 Nef VY8 variant with Met at P3 peptide on HLA-B*35:01 (human).
T3 peptide: VPMRPMTY

Test [4] addresses T4, HIV-1 Nef VY8 variant with Phe at P3 peptide on HLA-B*35:01 (human).
T4 peptide: VPFRPMTY

Test [5] deals with T5, HIV-1 Nef VY8 variant with Ala at P3 peptide on HLA-B*35:01 (human).
T5 peptide: VPARPMTY

B1: A1-S/B11-J1 (TCR)
alpha AV1-1*01 AJ26*01 CDR3: CAVSDNYGQNFVF
beta BV11-2*01 BJ1-1*01 CDR3: CASSLDLVSTEAFF
For B1, the binding result in test [1] is “no recognition”.

B2: TCR-139 (A1-T/B11-J1) (TCR)
alpha AV1-1*01 AJ26*01 CDR3: CAVTDNYGQNFVF
beta BV11-2*01 BJ1-1*01 CDR3: CASSLDLVSTEAFF
As for B2, the binding result is “no recognition” in test [1]; “recognises” in test [2]; “recognises” in test [3]; “recognises” in test [4]; “recognises” in test [5].

B3: H127 (A1-J31/B11) (TCR)
alpha AV1-1*01 AJ31*01 CDR3: CAVTSGDARLMF
beta BV11-1*01 BJ2-7*01 CDR3: CASSSDIVSYEQYF
B3: the binding result in test [2] is given as “no recognition”; in test [3], “recognises”; in test [4], “no recognition”; in test [5], “no recognition”.

The record behind these values is publication PMC4449784 (2015).
